Consider 14 variants from the supplement of paper PMC12338614.

± gives the uncertainty stated by the source.

The labels stand for the following.
B1: library; numbered along this chain (parent)
chain: MEVVDPQQLGMFTEGELMSVGMDTFIHRIDSTEVIYQPRRKRAKLIGKYLMGDLLGEGSYGKVKEVLDSETLCRRAVKILKKKKLRRIPNGEANVKKEIQLLRRLRHKNVIQLVDVLYNEEKQKMYMVMEYCVCGMQEMLDSVPEKRFPVCQAHGYFCQLIDGLEYLHSQGIVHKDIKPGNLLLTTGGTLKISDLGVAEALHPFAADDTCRTSQGSPAFQPPEIANGLDTFSGFKVDIWSAGVTLYNITTGLYPFEGDNIYKLFENIGKGSYAIPGDCGPPLSDLLKGMLEYEPAKRFSIRQIRQHSWFRKKHPPAEAPVPIPPSPDTKDRWRSMTVVPYLEDLHGADEDEDLFDIEDDIIYTQDFTVPGQVPEEEASHNGQRRGLPKAVCMNGTEAAQLSTKSRAEGRAPNPARKACSASSKIRRLSACKQQ

Variants of B1 are the subject of this series. Description: STK11 functional score (HeLa growth suppression), rescaled enrichment; synonymous median = 1, nonsense median = 0 (normalised score). Conditions: with HeLa; variant type: missense. The protocol:
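Deep mutational scan (TileSeq/POPCode codon randomisation) of full-length codon-optimised STK11 cDNA integrated at a Bxb1 landing pad (AAVS1) in HeLa cells. Restoring functional STK11 suppresses HeLa proliferation. Variant frequencies were measured by NGS before and after about two weeks of growth. The error-corrected enrichment log-ratio was rescaled so that synonymous median = 1 and nonsense median = 0, scores above 1 were compressed, and codon-level and three biological replicate scores were combined; error is the bootstrapped standard error. Scale: synonymous median = 1, nonsense median = 0; below 0.5 = damaging.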
Take MEVVDPQQLGMFTEGELMSVGMDTFIHRIDSTEVIYQPRRKRAKLIGKYLMGDLLGEGSYGKNKEVLDSETLCRRAVKILKKKKLRRIPNGEANVKKEIQLLRRLRHKNVIQLVDVLYNEEKQKMYMVMEYCVCGMQEMLDSVPEKRFPVCQAHGYFCQLIDGLEYLHSQGIVHKDIKPGNLLLTTGGTLKISDLGVAEALHPFAADDTCRTSQGSPAFQPPEIANGLDTFSGFKVDIWSAGVTLYNITTGLYPFEGDNIYKLFENIGKGSYAIPGDCGPPLSDLLKGMLEYEPAKRFSIRQIRQHSWFRKKHPPAEAPVPIPPSPDTKDRWRSMTVVPYLEDLHGADEDEDLFDIEDDIIYTQDFTVPGQVPEEEASHNGQRRGLPKAVCMNGTEAAQLSTKSRAEGRAPNPARKACSASSKIRRLSACKQQ [V63N]: the STK11 functional score turned out to be 1.14 ± 0.097.
Regarding MEVVDPQQLGMFTEGELMSVGMDTFIHRIDSTEVIYQPRRKRAKLIGKYLMGDLLGEGSYGKMKEVLDSETLCRRAVKILKKKKLRRIPNGEANVKKEIQLLRRLRHKNVIQLVDVLYNEEKQKMYMVMEYCVCGMQEMLDSVPEKRFPVCQAHGYFCQLIDGLEYLHSQGIVHKDIKPGNLLLTTGGTLKISDLGVAEALHPFAADDTCRTSQGSPAFQPPEIANGLDTFSGFKVDIWSAGVTLYNITTGLYPFEGDNIYKLFENIGKGSYAIPGDCGPPLSDLLKGMLEYEPAKRFSIRQIRQHSWFRKKHPPAEAPVPIPPSPDTKDRWRSMTVVPYLEDLHGADEDEDLFDIEDDIIYTQDFTVPGQVPEEEASHNGQRRGLPKAVCMNGTEAAQLSTKSRAEGRAPNPARKACSASSKIRRLSACKQQ [V63M], the STK11 functional score stood at 0.802 ± 0.23.
As to MEVVDPQQLGMFTEGELMSVGMDTFIHRIDSTEVIYQPRRKRAKLIGKYLMGDLLGEGSYGKLKEVLDSETLCRRAVKILKKKKLRRIPNGEANVKKEIQLLRRLRHKNVIQLVDVLYNEEKQKMYMVMEYCVCGMQEMLDSVPEKRFPVCQAHGYFCQLIDGLEYLHSQGIVHKDIKPGNLLLTTGGTLKISDLGVAEALHPFAADDTCRTSQGSPAFQPPEIANGLDTFSGFKVDIWSAGVTLYNITTGLYPFEGDNIYKLFENIGKGSYAIPGDCGPPLSDLLKGMLEYEPAKRFSIRQIRQHSWFRKKHPPAEAPVPIPPSPDTKDRWRSMTVVPYLEDLHGADEDEDLFDIEDDIIYTQDFTVPGQVPEEEASHNGQRRGLPKAVCMNGTEAAQLSTKSRAEGRAPNPARKACSASSKIRRLSACKQQ [V63L], the STK11 functional score came to 0.458 ± 0.099.
Turning to MEVVDPQQLGMFTEGELMSVGMDTFIHRIDSTEVIYQPRRKRAKLIGKYLMGDLLGEGSYGKQKEVLDSETLCRRAVKILKKKKLRRIPNGEANVKKEIQLLRRLRHKNVIQLVDVLYNEEKQKMYMVMEYCVCGMQEMLDSVPEKRFPVCQAHGYFCQLIDGLEYLHSQGIVHKDIKPGNLLLTTGGTLKISDLGVAEALHPFAADDTCRTSQGSPAFQPPEIANGLDTFSGFKVDIWSAGVTLYNITTGLYPFEGDNIYKLFENIGKGSYAIPGDCGPPLSDLLKGMLEYEPAKRFSIRQIRQHSWFRKKHPPAEAPVPIPPSPDTKDRWRSMTVVPYLEDLHGADEDEDLFDIEDDIIYTQDFTVPGQVPEEEASHNGQRRGLPKAVCMNGTEAAQLSTKSRAEGRAPNPARKACSASSKIRRLSACKQQ [V63Q], the STK11 functional score was found to be 0.451 ± 0.38.
To MEVVDPQQLGMFTEGELMSVGMDTFIHRIDSTEVIYQPRRKRAKLIGKYLMGDLLGEGSYGKRKEVLDSETLCRRAVKILKKKKLRRIPNGEANVKKEIQLLRRLRHKNVIQLVDVLYNEEKQKMYMVMEYCVCGMQEMLDSVPEKRFPVCQAHGYFCQLIDGLEYLHSQGIVHKDIKPGNLLLTTGGTLKISDLGVAEALHPFAADDTCRTSQGSPAFQPPEIANGLDTFSGFKVDIWSAGVTLYNITTGLYPFEGDNIYKLFENIGKGSYAIPGDCGPPLSDLLKGMLEYEPAKRFSIRQIRQHSWFRKKHPPAEAPVPIPPSPDTKDRWRSMTVVPYLEDLHGADEDEDLFDIEDDIIYTQDFTVPGQVPEEEASHNGQRRGLPKAVCMNGTEAAQLSTKSRAEGRAPNPARKACSASSKIRRLSACKQQ [V63R] belongs -0.0566 ± 0.15; to MEVVDPQQLGMFTEGELMSVGMDTFIHRIDSTEVIYQPRRKRAKLIGKYLMGDLLGEGSYGKIKEVLDSETLCRRAVKILKKKKLRRIPNGEANVKKEIQLLRRLRHKNVIQLVDVLYNEEKQKMYMVMEYCVCGMQEMLDSVPEKRFPVCQAHGYFCQLIDGLEYLHSQGIVHKDIKPGNLLLTTGGTLKISDLGVAEALHPFAADDTCRTSQGSPAFQPPEIANGLDTFSGFKVDIWSAGVTLYNITTGLYPFEGDNIYKLFENIGKGSYAIPGDCGPPLSDLLKGMLEYEPAKRFSIRQIRQHSWFRKKHPPAEAPVPIPPSPDTKDRWRSMTVVPYLEDLHGADEDEDLFDIEDDIIYTQDFTVPGQVPEEEASHNGQRRGLPKAVCMNGTEAAQLSTKSRAEGRAPNPARKACSASSKIRRLSACKQQ [V63I], 1.45 ± 0.27.
To MEVVDPQQLGMFTEGELMSVGMDTFIHRIDSTEVIYQPRRKRAKLIGKYLMGDLLGEGSYGKWKEVLDSETLCRRAVKILKKKKLRRIPNGEANVKKEIQLLRRLRHKNVIQLVDVLYNEEKQKMYMVMEYCVCGMQEMLDSVPEKRFPVCQAHGYFCQLIDGLEYLHSQGIVHKDIKPGNLLLTTGGTLKISDLGVAEALHPFAADDTCRTSQGSPAFQPPEIANGLDTFSGFKVDIWSAGVTLYNITTGLYPFEGDNIYKLFENIGKGSYAIPGDCGPPLSDLLKGMLEYEPAKRFSIRQIRQHSWFRKKHPPAEAPVPIPPSPDTKDRWRSMTVVPYLEDLHGADEDEDLFDIEDDIIYTQDFTVPGQVPEEEASHNGQRRGLPKAVCMNGTEAAQLSTKSRAEGRAPNPARKACSASSKIRRLSACKQQ [V63W] belongs 0.213 ± 0.095; to MEVVDPQQLGMFTEGELMSVGMDTFIHRIDSTEVIYQPRRKRAKLIGKYLMGDLLGEGSYGKSKEVLDSETLCRRAVKILKKKKLRRIPNGEANVKKEIQLLRRLRHKNVIQLVDVLYNEEKQKMYMVMEYCVCGMQEMLDSVPEKRFPVCQAHGYFCQLIDGLEYLHSQGIVHKDIKPGNLLLTTGGTLKISDLGVAEALHPFAADDTCRTSQGSPAFQPPEIANGLDTFSGFKVDIWSAGVTLYNITTGLYPFEGDNIYKLFENIGKGSYAIPGDCGPPLSDLLKGMLEYEPAKRFSIRQIRQHSWFRKKHPPAEAPVPIPPSPDTKDRWRSMTVVPYLEDLHGADEDEDLFDIEDDIIYTQDFTVPGQVPEEEASHNGQRRGLPKAVCMNGTEAAQLSTKSRAEGRAPNPARKACSASSKIRRLSACKQQ [V63S], 1.27 ± 0.23.
Take MEVVDPQQLGMFTEGELMSVGMDTFIHRIDSTEVIYQPRRKRAKLIGKYLMGDLLGEGSYGKVCEVLDSETLCRRAVKILKKKKLRRIPNGEANVKKEIQLLRRLRHKNVIQLVDVLYNEEKQKMYMVMEYCVCGMQEMLDSVPEKRFPVCQAHGYFCQLIDGLEYLHSQGIVHKDIKPGNLLLTTGGTLKISDLGVAEALHPFAADDTCRTSQGSPAFQPPEIANGLDTFSGFKVDIWSAGVTLYNITTGLYPFEGDNIYKLFENIGKGSYAIPGDCGPPLSDLLKGMLEYEPAKRFSIRQIRQHSWFRKKHPPAEAPVPIPPSPDTKDRWRSMTVVPYLEDLHGADEDEDLFDIEDDIIYTQDFTVPGQVPEEEASHNGQRRGLPKAVCMNGTEAAQLSTKSRAEGRAPNPARKACSASSKIRRLSACKQQ [K64C]: the STK11 functional score amounted to 0.813 ± 0.53.
In the case of MEVVDPQQLGMFTEGELMSVGMDTFIHRIDSTEVIYQPRRKRAKLIGKYLMGDLLGEGSYGKVLEVLDSETLCRRAVKILKKKKLRRIPNGEANVKKEIQLLRRLRHKNVIQLVDVLYNEEKQKMYMVMEYCVCGMQEMLDSVPEKRFPVCQAHGYFCQLIDGLEYLHSQGIVHKDIKPGNLLLTTGGTLKISDLGVAEALHPFAADDTCRTSQGSPAFQPPEIANGLDTFSGFKVDIWSAGVTLYNITTGLYPFEGDNIYKLFENIGKGSYAIPGDCGPPLSDLLKGMLEYEPAKRFSIRQIRQHSWFRKKHPPAEAPVPIPPSPDTKDRWRSMTVVPYLEDLHGADEDEDLFDIEDDIIYTQDFTVPGQVPEEEASHNGQRRGLPKAVCMNGTEAAQLSTKSRAEGRAPNPARKACSASSKIRRLSACKQQ [K64L], the STK11 functional score amounted to 1.54 ± 0.26.
On to MEVVDPQQLGMFTEGELMSVGMDTFIHRIDSTEVIYQPRRKRAKLIGKYLMGDLLGEGSYGKVAEVLDSETLCRRAVKILKKKKLRRIPNGEANVKKEIQLLRRLRHKNVIQLVDVLYNEEKQKMYMVMEYCVCGMQEMLDSVPEKRFPVCQAHGYFCQLIDGLEYLHSQGIVHKDIKPGNLLLTTGGTLKISDLGVAEALHPFAADDTCRTSQGSPAFQPPEIANGLDTFSGFKVDIWSAGVTLYNITTGLYPFEGDNIYKLFENIGKGSYAIPGDCGPPLSDLLKGMLEYEPAKRFSIRQIRQHSWFRKKHPPAEAPVPIPPSPDTKDRWRSMTVVPYLEDLHGADEDEDLFDIEDDIIYTQDFTVPGQVPEEEASHNGQRRGLPKAVCMNGTEAAQLSTKSRAEGRAPNPARKACSASSKIRRLSACKQQ [K64A], for which the STK11 functional score is 1.59 ± 0.31.
Regarding MEVVDPQQLGMFTEGELMSVGMDTFIHRIDSTEVIYQPRRKRAKLIGKYLMGDLLGEGSYGKVNEVLDSETLCRRAVKILKKKKLRRIPNGEANVKKEIQLLRRLRHKNVIQLVDVLYNEEKQKMYMVMEYCVCGMQEMLDSVPEKRFPVCQAHGYFCQLIDGLEYLHSQGIVHKDIKPGNLLLTTGGTLKISDLGVAEALHPFAADDTCRTSQGSPAFQPPEIANGLDTFSGFKVDIWSAGVTLYNITTGLYPFEGDNIYKLFENIGKGSYAIPGDCGPPLSDLLKGMLEYEPAKRFSIRQIRQHSWFRKKHPPAEAPVPIPPSPDTKDRWRSMTVVPYLEDLHGADEDEDLFDIEDDIIYTQDFTVPGQVPEEEASHNGQRRGLPKAVCMNGTEAAQLSTKSRAEGRAPNPARKACSASSKIRRLSACKQQ [K64N], the STK11 functional score worked out at 0.93 ± 0.15.
To MEVVDPQQLGMFTEGELMSVGMDTFIHRIDSTEVIYQPRRKRAKLIGKYLMGDLLGEGSYGKVPEVLDSETLCRRAVKILKKKKLRRIPNGEANVKKEIQLLRRLRHKNVIQLVDVLYNEEKQKMYMVMEYCVCGMQEMLDSVPEKRFPVCQAHGYFCQLIDGLEYLHSQGIVHKDIKPGNLLLTTGGTLKISDLGVAEALHPFAADDTCRTSQGSPAFQPPEIANGLDTFSGFKVDIWSAGVTLYNITTGLYPFEGDNIYKLFENIGKGSYAIPGDCGPPLSDLLKGMLEYEPAKRFSIRQIRQHSWFRKKHPPAEAPVPIPPSPDTKDRWRSMTVVPYLEDLHGADEDEDLFDIEDDIIYTQDFTVPGQVPEEEASHNGQRRGLPKAVCMNGTEAAQLSTKSRAEGRAPNPARKACSASSKIRRLSACKQQ [K64P] belongs 0.931 ± 0.21; to MEVVDPQQLGMFTEGELMSVGMDTFIHRIDSTEVIYQPRRKRAKLIGKYLMGDLLGEGSYGKVGEVLDSETLCRRAVKILKKKKLRRIPNGEANVKKEIQLLRRLRHKNVIQLVDVLYNEEKQKMYMVMEYCVCGMQEMLDSVPEKRFPVCQAHGYFCQLIDGLEYLHSQGIVHKDIKPGNLLLTTGGTLKISDLGVAEALHPFAADDTCRTSQGSPAFQPPEIANGLDTFSGFKVDIWSAGVTLYNITTGLYPFEGDNIYKLFENIGKGSYAIPGDCGPPLSDLLKGMLEYEPAKRFSIRQIRQHSWFRKKHPPAEAPVPIPPSPDTKDRWRSMTVVPYLEDLHGADEDEDLFDIEDDIIYTQDFTVPGQVPEEEASHNGQRRGLPKAVCMNGTEAAQLSTKSRAEGRAPNPARKACSASSKIRRLSACKQQ [K64G], 0.436 ± 0.29.
